From patent US20150368333A1 (GlaxoSmithKline, published 2015)
Blank lines part the entries; values can stand above or below the binder they belong to.

Experiments:
[1] = target: T1, TNF alpha (species not given) (UniProt P01375 77-233, limits assumed); assay: cell-based or functional assay
[2] = target: T1, TNF alpha (species not stated in the …); assay: cell-based or functional assay; remark: listed apart in the source
recombinant human TNFα [3] = target: T2, recombinant human TNFα (human, UniProt P01375 77-233); assay: Biacore T100 SPR, antibody captured on Protein A, TNF alpha as analyte, 37 C
T2 construct: also called human TNF alpha; tumour necrosis factor alpha
T2 sequence (P01375 77-233 limits assumed): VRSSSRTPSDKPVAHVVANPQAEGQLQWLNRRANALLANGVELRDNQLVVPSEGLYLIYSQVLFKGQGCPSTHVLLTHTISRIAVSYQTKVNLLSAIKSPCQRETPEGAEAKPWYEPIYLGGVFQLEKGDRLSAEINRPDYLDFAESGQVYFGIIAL

[4] = target: T3, recombinant cynomolgus TNF alpha (cynomolgus, UniProt P79337 77-233); assay: as above
T3 construct: also called Cyno TNFα
T3 sequence (P79337 77-233 limits assumed): as the sequence (P01375 77-233 limits assumed) above, with L37V, R44T, T72N, R138L counted along it

recombinant human TNFα [5] = target: T2, recombinant human TNFα; assay: Biacore T100 SPR, antibody captured on anti-human IgG, TNF alpha as analyte, 37 C
[6] = target: T3, recombinant cynomolgus TNF alpha; assay: as above
[7] = target: T1, TNF alpha (species not stated in the …); assay: ProteOn SPR reverse format, biotinylated TNF alpha captured on neutravidin (NLC) chip, antibody as analyte, 1:1 model, apparent kinetics
recombinant human FcRn [8] = target: T4, recombinant human FcRn (human, UniProt P55899 24-297; P61769 21-119, limits assumed); assay: SPR, antibody amine-coupled on GLM chip, FcRn as analyte, equilibrium model, pH 6.0
T4 construct: also called Human FcRn receptor

[9] = target: T5, recombinant cynomolgus FcRn (cynomolgus, UniProt Q8SPV9 24-297; Q8SPW0 21-119, limits assumed); assay: as above
T5 construct: Construct not described; beta-2-microglobulin not mentioned; also called cyno FcRn

mouse FcRn [10] = target: T6, mouse FcRn (mouse, UniProt Q61559 22-297; P01887 21-119, limits assumed); assay: as above
T6 construct: Construct not described; also called Mouse FcRn receptor
T6 sequence (looked up) 1: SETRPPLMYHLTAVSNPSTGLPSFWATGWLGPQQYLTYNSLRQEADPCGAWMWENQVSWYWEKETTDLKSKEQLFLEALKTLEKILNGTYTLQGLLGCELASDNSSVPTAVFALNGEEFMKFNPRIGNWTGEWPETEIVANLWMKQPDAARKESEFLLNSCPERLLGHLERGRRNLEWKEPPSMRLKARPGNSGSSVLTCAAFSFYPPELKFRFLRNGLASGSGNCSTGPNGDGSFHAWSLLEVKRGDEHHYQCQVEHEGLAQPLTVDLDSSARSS
T6 sequence (looked up) 2: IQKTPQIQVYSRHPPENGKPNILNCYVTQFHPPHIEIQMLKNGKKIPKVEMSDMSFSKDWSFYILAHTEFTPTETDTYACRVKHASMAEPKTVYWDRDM

rat FcRn [11] = target: T7, rat FcRn (rat, UniProt P13599 23-298; P07151 21-119, limits assumed); assay: as above
T7 construct: Construct not described; also called Rat FcRn receptor
T7 sequence (looked up) 1: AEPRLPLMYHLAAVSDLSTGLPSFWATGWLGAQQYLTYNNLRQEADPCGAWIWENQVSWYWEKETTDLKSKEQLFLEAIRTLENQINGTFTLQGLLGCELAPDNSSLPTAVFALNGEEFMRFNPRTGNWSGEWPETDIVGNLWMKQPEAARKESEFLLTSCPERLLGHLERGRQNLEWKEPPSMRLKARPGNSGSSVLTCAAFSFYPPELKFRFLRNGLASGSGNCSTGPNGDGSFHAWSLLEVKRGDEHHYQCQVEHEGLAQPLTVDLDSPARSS
T7 sequence (looked up) 2: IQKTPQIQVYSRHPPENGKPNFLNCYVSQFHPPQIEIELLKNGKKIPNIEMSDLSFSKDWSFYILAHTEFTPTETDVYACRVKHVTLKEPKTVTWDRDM

recombinant human FcRn [12] = target: T4, recombinant human FcRn; assay: SPR, antibody amine-coupled on GLM chip, FcRn as analyte, equilibrium model, pH 7.4
[13] = target: T5, recombinant cynomolgus FcRn; assay: as above
mouse FcRn [14] = target: T6, mouse FcRn; assay: as above
rat FcRn [15] = target: T7, rat FcRn; assay: as above
recombinant human FcRn [16] = target: T4, recombinant human FcRn; assay: SPR, antibody amine-coupled on GLM chip, FcRn as analyte, equilibrium model, pH 6.0; pH 6.0
[17] = target: T5, recombinant cynomolgus FcRn; assay: as above
mouse FcRn [18] = target: T6, mouse FcRn; assay: as above
rat FcRn [19] = target: T7, rat FcRn; assay: as above

T1 sequence (P01375 77-233 limits assumed): as the sequence (P01375 77-233 limits assumed) above

IC50, TNFα-induced IL-6 release assay (whole blood) [2]: 0.11 nM
Kd (recombinant human TNFα [3]): 0.0156 nM
koff (recombinant human TNFα [3]): 4.19e-05 s⁻¹
kon (recombinant human TNFα [3]): 2.68e+06 M⁻¹ s⁻¹
Kd [4]: 0.015 nM
koff [4]: 3.51e-05 s⁻¹
kon [4]: 2.34e+06 M⁻¹ s⁻¹
Kd (recombinant human TNFα [5]): 0.0157 nM
koff (recombinant human TNFα [5]): 7.07e-05 s⁻¹
kon (recombinant human TNFα [5]): 4.51e+06 M⁻¹ s⁻¹
Kd [6]: 0.0467 nM
koff [6]: 0.000209 s⁻¹
kon [6]: 4.48e+06 M⁻¹ s⁻¹
Kd [7]: 0.015 nM
koff [7]: 3e-05 s⁻¹
kon [7]: 2.06e+06 M⁻¹ s⁻¹
B1: BPC1500 (antibody, V domains shown)
VH: EVQLVESGGGLVQPGRSLRLSCAASGFTFDDHALHWVRQAPGKGLEWVSAITWNSGHIDYADSVEGRFTISRDNAKNSLYLQMNSLRAEDTAVYYCAKVRYLSTASSLDYWGQGTLVTVSS
VL: not shown
notes: also called CDR variant cb2-44, wild-type Fc; improved anti-TNFα antibody
IC50, L929 neutralisation assay (cell viability) [1]: 0.13 µg/mL

Kd (recombinant human FcRn [8]): 98 nM
Kd [9]: 92.1 nM
Kd (mouse FcRn [10]): 53.4 nM
Kd (rat FcRn [11]): 66 nM
Kd (recombinant human FcRn [12]): 11600 nM
Kd [13]: 11100 nM
Kd (mouse FcRn [14]): 2160 nM
Kd (rat FcRn [15]): 4330 nM
B2: BPC2604 (antibody, human IgG1, kappa)
heavy: QVTLRESGPALVKPTQTLTLTCTFSGFSLSTSGMGVSWIRQPPGKGLEWLAHIYWDDDKRYNPSLKSRLTISKDTSRNQVVLTMTNMDPVDTATYYCARRETVFYWYFDVWGRGTLVTVSSASTKGPSVFPLAPSSKSTSGGTAALGCLVKDYFPEPVTVSWNSGALTSGVHTFPAVLQSSGLYSLSSVVTVPSSSLGTQTYICNVNHKPSNTKVDKKVEPKSCDKTHTCPPCPAPELLGGPSVFLFPPKPKDTLYITREPEVTCVVVDVSHEDPEVKFNWYVDGVEVHNAKTKPREEQYNSTYRVVSVLTVLHQDWLNGKEYKCKVSNKALPAPIEKTISKAKGQPREPQVYTLPPSRDELTKNQVSLTCLVKGFYPSDIAVEWESNGQPENNYKTTPPVLDSDGSFFLYSKLTVDKSRWQQGNVFSCSVMHEALHNHYTQKSLSLSPGK
light: DIVLTQSPSSLSASVGDRVTITCKASQSVDYDGDSYMNWYQQKPGKAPKLLIYAASNLESGIPSRFSGSGSGTDFTFTISSLQPEDIATYYCQQSNEDPPTFGQGTKVEIKRTVAAPSVFIFPPSDEQLKSGTASVVCLLNNFYPREAKVQWKVDNALQSGNSQESVTEQDSKDSTYSLSSTLTLSKADYEKHKVYACEVTHQGLSSPVTKSFNRGEC
notes: also called pascolizumab-YTE; Pasco-YTE

Kd (recombinant human FcRn [16]): 541 nM
Kd [17]: 505 nM
Kd (mouse FcRn [18]): 205 nM
Kd (rat FcRn [19]): 228 nM
B3: Pascolizumab (antibody, human IgG1, kappa)
heavy: not shown
light: B2 light
notes: IgG1, unmodified Fc; also called anti-IL-4 antibody
